Measurements: publication PMC12272218

Molecular target: T1, Uracil-DNA Glycosylase (UDG) (UniProt P12295)
T1 sequence: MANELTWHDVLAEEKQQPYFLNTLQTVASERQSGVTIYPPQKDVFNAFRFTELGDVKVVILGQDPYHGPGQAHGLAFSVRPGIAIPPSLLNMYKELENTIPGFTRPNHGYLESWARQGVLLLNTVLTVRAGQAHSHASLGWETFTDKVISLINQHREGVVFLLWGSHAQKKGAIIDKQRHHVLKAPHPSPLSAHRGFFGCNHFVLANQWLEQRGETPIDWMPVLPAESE

uracil glycosylase inhibitor (UGI) (from UniProt P14739 1-84) (natural protein)
half-maximal inhibitory concentration of UGI on UDG activity, read by fluorescence of the dU-containing circular crRNA-assisted CRISPR-Cas12a system: 0.087 U/mL
